{
  "source": "the Human Domainome abundance scans (Beltran et al. 2025)",
  "parents": {"B1": {"name": "POU domain, class 4, transcription factor 3, residues 185 to 256; numbered along this chain, Q15319 (parent)", "chain": "RELEAFAERFKQRRIKLGVTQADVGAALANLKIPGVGSLSQSTICRFESLTLSHNNMIALKPVLQAWLEEAE"}},
  "note": "± gives the uncertainty stated by the source.",
  "data": [
    {"variants_of": "B1", "experiment": "abundance fitness (aPCA) (normalised: wild type 0, dead -1); higher = more abundant; growth selection in yeast, the domain comes from the species named", "conditions": "Homo sapiens", "values": [
      {"variant": "RELEAFAERFKQRRIKLGVTQADVGAALANLKIPGVGSLSQSTICRFESLTLSHNNMIALKPVLQPWLEEAE", "abundance fitness": "-0.65 ± 0.14"},
      {"variant": "RELEAFAERFKQRRIKLGVTQADVGAALANLKIPGVGSLSQSTICRFESLTLSHNNMIALKPVLQQWLEEAE", "abundance fitness": "0.042 ± 0.2"},
      {"variant": "RELEAFAERFKQRRIKLGVTQADVGAALANLKIPGVGSLSQSTICRFESLTLSHNNMIALKPVLQVWLEEAE", "abundance fitness": "-0.429 ± 0.2"},
      {"variant": "RELEAFAERFKQRRIKLGVTQADVGAALANLKIPGVGSLSQSTICRFESLTLSHNNMIALKPVLQEWLEEAE", "abundance fitness": "0.053 ± 0.09"},
      {"variant": "RELEAFAERFKQRRIKLGVTQADVGAALANLKIPGVGSLSQSTICRFESLTLSHNNMIALKPVLQTWLEEAE", "abundance fitness": "-0.074 ± 0.18"},
      {"variant": "RELEAFAERFKQRRIKLGVTQADVGAALANLKIPGVGSLSQSTICRFESLTLSHNNMIALKPVLQLWLEEAE", "abundance fitness": "-0.048 ± 0.33"},
      {"variant": "RELEAFAERFKQRRIKLGVTQADVGAALANLKIPGVGSLSQSTICRFESLTLSHNNMIALKPVLQGWLEEAE", "abundance fitness": "-0.013 ± 0.092"},
      {"variant": "RELEAFAERFKQRRIKLGVTQADVGAALANLKIPGVGSLSQSTICRFESLTLSHNNMIALKPVLQKWLEEAE", "abundance fitness": "0.079 ± 0.12"},
      {"variant": "RELEAFAERFKQRRIKLGVTQADVGAALANLKIPGVGSLSQSTICRFESLTLSHNNMIALKPVLQRWLEEAE", "abundance fitness": "-0.133 ± 0.08"},
      {"variant": "RELEAFAERFKQRRIKLGVTQADVGAALANLKIPGVGSLSQSTICRFESLTLSHNNMIALKPVLQDWLEEAE", "abundance fitness": "-0.162 ± 0.24"},
      {"variant": "RELEAFAERFKQRRIKLGVTQADVGAALANLKIPGVGSLSQSTICRFESLTLSHNNMIALKPVLQAWPEEAE", "abundance fitness": "-1.06 ± 0.14"},
      {"variant": "RELEAFAERFKQRRIKLGVTQADVGAALANLKIPGVGSLSQSTICRFESLTLSHNNMIALKPVLQAWIEEAE", "abundance fitness": "-0.056 ± 0.069"},
      {"variant": "RELEAFAERFKQRRIKLGVTQADVGAALANLKIPGVGSLSQSTICRFESLTLSHNNMIALKPVLQAWNEEAE", "abundance fitness": "-0.912 ± 0.12"},
      {"variant": "RELEAFAERFKQRRIKLGVTQADVGAALANLKIPGVGSLSQSTICRFESLTLSHNNMIALKPVLQAWKEEAE", "abundance fitness": "-0.901 ± 0.054"},
      {"variant": "RELEAFAERFKQRRIKLGVTQADVGAALANLKIPGVGSLSQSTICRFESLTLSHNNMIALKPVLQAWCEEAE", "abundance fitness": "-0.257 ± 0.072"},
      {"variant": "RELEAFAERFKQRRIKLGVTQADVGAALANLKIPGVGSLSQSTICRFESLTLSHNNMIALKPVLQAWWEEAE", "abundance fitness": "-0.574 ± 0.041"},
      {"variant": "RELEAFAERFKQRRIKLGVTQADVGAALANLKIPGVGSLSQSTICRFESLTLSHNNMIALKPVLQAWREEAE", "abundance fitness": "-0.96 ± 0.068"},
      {"variant": "RELEAFAERFKQRRIKLGVTQADVGAALANLKIPGVGSLSQSTICRFESLTLSHNNMIALKPVLQAWTEEAE", "abundance fitness": "-0.46 ± 0.038"},
      {"variant": "RELEAFAERFKQRRIKLGVTQADVGAALANLKIPGVGSLSQSTICRFESLTLSHNNMIALKPVLQAWMEEAE", "abundance fitness": "-0.056 ± 0.031"},
      {"variant": "RELEAFAERFKQRRIKLGVTQADVGAALANLKIPGVGSLSQSTICRFESLTLSHNNMIALKPVLQAWQEEAE", "abundance fitness": "-0.497 ± 0.047"},
      {"variant": "RELEAFAERFKQRRIKLGVTQADVGAALANLKIPGVGSLSQSTICRFESLTLSHNNMIALKPVLQAWDEEAE", "abundance fitness": "-0.872 ± 0.078"},
      {"variant": "RELEAFAERFKQRRIKLGVTQADVGAALANLKIPGVGSLSQSTICRFESLTLSHNNMIALKPVLQAWYEEAE", "abundance fitness": "-0.287 ± 0.052"},
      {"variant": "RELEAFAERFKQRRIKLGVTQADVGAALANLKIPGVGSLSQSTICRFESLTLSHNNMIALKPVLQAWEEEAE", "abundance fitness": "-0.503 ± 0.042"},
      {"variant": "RELEAFAERFKQRRIKLGVTQADVGAALANLKIPGVGSLSQSTICRFESLTLSHNNMIALKPVLQAWAEEAE", "abundance fitness": "-0.287 ± 0.032"},
      {"variant": "RELEAFAERFKQRRIKLGVTQADVGAALANLKIPGVGSLSQSTICRFESLTLSHNNMIALKPVLQAWVEEAE", "abundance fitness": "-0.13 ± 0.026"},
      {"variant": "RELEAFAERFKQRRIKLGVTQADVGAALANLKIPGVGSLSQSTICRFESLTLSHNNMIALKPVLQAWGEEAE", "abundance fitness": "-0.685 ± 0.042"},
      {"variant": "RELEAFAERFKQRRIKLGVTQADVGAALANLKIPGVGSLSQSTICRFESLTLSHNNMIALKPVLQAWFEEAE", "abundance fitness": "-0.585 ± 0.067"},
      {"variant": "RELEAFAERFKQRRIKLGVTQADVGAALANLKIPGVGSLSQSTICRFESLTLSHNNMIALKPVLQAWLFEAE", "abundance fitness": "-0.2 ± 0.06"},
      {"variant": "RELEAFAERFKQRRIKLGVTQADVGAALANLKIPGVGSLSQSTICRFESLTLSHNNMIALKPVLQAWLDEAE", "abundance fitness": "-0.039 ± 0.078"},
      {"variant": "RELEAFAERFKQRRIKLGVTQADVGAALANLKIPGVGSLSQSTICRFESLTLSHNNMIALKPVLQAWLIEAE", "abundance fitness": "-0.106 ± 0.059"},
      {"variant": "RELEAFAERFKQRRIKLGVTQADVGAALANLKIPGVGSLSQSTICRFESLTLSHNNMIALKPVLQAWLCEAE", "abundance fitness": "0.006 ± 0.073"},
      {"variant": "RELEAFAERFKQRRIKLGVTQADVGAALANLKIPGVGSLSQSTICRFESLTLSHNNMIALKPVLQAWLHEAE", "abundance fitness": "-0.332 ± 0.15"},
      {"variant": "RELEAFAERFKQRRIKLGVTQADVGAALANLKIPGVGSLSQSTICRFESLTLSHNNMIALKPVLQAWLGEAE", "abundance fitness": "-0.194 ± 0.049"},
      {"variant": "RELEAFAERFKQRRIKLGVTQADVGAALANLKIPGVGSLSQSTICRFESLTLSHNNMIALKPVLQAWLAEAE", "abundance fitness": "0.04 ± 0.048"},
      {"variant": "RELEAFAERFKQRRIKLGVTQADVGAALANLKIPGVGSLSQSTICRFESLTLSHNNMIALKPVLQAWLKEAE", "abundance fitness": "-0.041 ± 0.05"},
      {"variant": "RELEAFAERFKQRRIKLGVTQADVGAALANLKIPGVGSLSQSTICRFESLTLSHNNMIALKPVLQAILEEAE", "abundance fitness": "-0.752 ± 0.17"},
      {"variant": "RELEAFAERFKQRRIKLGVTQADVGAALANLKIPGVGSLSQSTICRFESLTLSHNNMIALKPVLQALLEEAE", "abundance fitness": "-0.549 ± 0.052"}
    ]}
  ]
}
